The text below walks through data of the supplement of paper PMC11502859.

In the data set the test system is HEK293T. Put plainly: median enrichment of reporter reads in eGFP-reduced (low/intermediate) vs eGFP-high sorted cells (eGFP-extension fusion abundance) (ratio); higher = stronger loss of eGFP-fusion protein abundance (more destabilising extension).
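Note: lentiviral eGFP-IRES-mCherry reporter pool sorted by FACS 96 h post-transduction, gated on mCherry-high cells, Illumina read counts normalized per million, median across four biological replicates.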

With “LEVVFGVQLLPCTFSLLLSSSTPNRENLGVSGSIWALIYSPSFLSML [ZNF774]”, the median enrichment was 9.71.

Consider YFSPFFSPEMKTTSPLSLWKQSSVLHTTRC [ARL1], for which the median enrichment worked out at 11.4.

Take LLRPGALGARP [APOBR]: the median enrichment came out at 9.86. As for YSQLKECEILNY [MTREX], the figure is 1.31. In the case of “YNWKLSTHRKRSLLGRWPPQCLEKNLWASTAAREELLQARGRKGENTNSLVVSGVGG [S1PR1]” it was 5.24; in that of WVVGSPADGSTWTWG [GABARAPL1], 6.43; in that of SVQMMWEFVGFLFFFFFDT [ZNF80], 7.98. In the case of “LGLLALTLQPTLAVWPSPGSFPAPLPLFPVLLNSPSWRVQALGMGGTRPHSFHRALRPDTADQPHSAQEAASGVGAQRGTAAS [BAP1]”, the median enrichment turned out to be 8.12.

For LIA [ACAT2], the median enrichment was 1.03. For “EVQPACSCIQKPATTQPISACAYPDKKTKIPLGKTQALTLLFKWPLQKV [TPD52L1]”, the median enrichment came to 13. In the case of YAKSRCTQHVLGMQPQEVPDLKQPDSYLA [GREM1] it was 22.9; in that of “YPGASWLRLAPSGHLPWSDPFQMKCGDIDLFFFFFETEFHSCCPVWSAMAQSQLTATSASWVQAILLPQPPK [SPC24]”, 7.7. Take “KTQMRASLRLPETARPKSQVQSFPTPLKFIVSSREKQIPIHPTNRCIVWVLEVPSKLLLVRLG [PPEF1]”: the median enrichment was 14.2. In the case of YLTLPIS [OR5AS1] it was 15.4; in that of YPVTL [SMCO1], 0.416; in that of “WIPQGTTEAKELEVFSRGTDGLRALMMLPEVCKSFMS [LOR]”, 10.9. As to “GSSTETGASSSSLGCGPSSRTRTSATSRASWRAWASARAASSLTASAASSAA [CCM2L]”, the median enrichment is 13.6.

As to KARFLAVQFLLKVPLFPKSNY [HBB], the median enrichment was determined as 5.47. In the case of WPPPAPTRPRRALSIS [SLCO4A1] it was 9.47; in that of KICQDKGSEDWTCSDIGVLLPSS [MAPK1], 2.3. In the case of KKNQNGLR [ADGRB3] it was 0.618. Regarding WFC [HNRNPF], the median enrichment amounted to 2.6.

RRPRAPHLSRSLMPQGAQ [SLC44A2]: the median enrichment was 1.11. In the case of FLQRTALIFRFKRLPTR [Degron UPS] it was 6.83; in that of “RTPNTIFAIQPQAMGTAFLPRGPGRPQRLLQARTLVHYTPCLGAEILQQKDAIFFVSFFSIFFSKESIFQYVECVSNAMKLKY [NFYC]”, 15.8.

Turning to KKSSINVLSIGKYT [GRIN2A], the median enrichment was found to be 1.77.

With ELQEAN [GZMB], the median enrichment was 0.208.

Take WARSTGPDEWIFTTFTRL [CD8B]: the median enrichment turned out to be 7.72.

On to SRVSGKKHSCMSICSWNQFL [STYK1], for which the median enrichment came to 11. In the case of MLSESRNFPAQA [Degron KLHDC3] it was 4.77; in that of YRLLSKHRFSR [Degron FEM1A/C], 5.74; in that of RERGLSSSLPAPSSPRPSSLCAW [HOXC10], 4.17.

Turning to “RAPVGKGGGLRGRGWMPRAPKPPFPFVSKGVRSELRKRASECVSLEGLGALWCYHLETCLMPPCLPMEDRLQELGPCGNLACF [MTA2]”, the median enrichment came to 5.52. On to “SRATGPQQCEGSLAAHPAAGAQPLPGMRLSADGETATQSFGLCVCVCVCVCVCAHPRVPVCVRILPPGAEVPWVSPLLCNGLL [FGFR3]”, for which the median enrichment amounted to 6.49. As for “CGLLPLGPLTLSGWWTTKYNPVYNLKIYFTFVLLYLFIKG [SMAD4]”, the figure is 2.65; as for CEGYYPFYYGTMPCVKNNHPLAYSH [DPY19L2], 8.92; as for “RGPPLAKACGRRWRPSLGRFQGASGKPDGCWWPFPRGLVSGPAQSLLRGRGWRLGSPACLAPPSERAALLSY [ARL6IP4]”, 10.9. As for QSWWPQPLASDTLYLKNNCAL [CALB1], the median enrichment worked out at 5.97. In the case of LSFCLA [UTP3] it was 8.65; in that of “YALNINSVLQIFITYLLQSQNPKIFIKSKYLMSFEGSLSYTK [C10orf88]”, 1.47; in that of “GAPPPGWTGAWLPSSFLPWLPEETPLTQPAWALTTNTLGHGQPAQDRLPALGHCAPISVLGLGSS [TTYH1]”, 15.2. As to “SDFYLNRETYARTVWTNSRPRHGARRPAGLPPLDGRGKDGRELHCESAARAAGGWDWSSLYCR [DOT1L]”, the median enrichment is 6.88. For the substance RILDQ [SH3KBP1], the median enrichment stood at 1.07. As for LCFAEIFCSLRISETYL [SIM1], the figure is 7.43; as for RQRRD [PVR], 0.306; as for “ELQQKNLHCYIRYRYKMQKKHQEFCLLFYFIFKLQEVFSSWDNLVLLLSIICQFLCILNKINIELK [WDR49]”, 2.64. For YPPQGPAPPRPGE [WFIKKN1], the median enrichment worked out at 0.52.

For the substance YIRRHH [IFITM2], the median enrichment is 9.67. On to CRDLAERWRSHQGPRDNYQEQKPLPVPH [IGSF22], for which the median enrichment is 3.87. As for “WWSCDVHEVLPHALEGSESRVNCPADILLGFLA [SLC7A6OS]”, the median enrichment was 8.62.

With WGPAWHPVTPPQCLSWP [CSHL1], the median enrichment stood at 7.99. In the case of “WERPGGGAHWEGQDSVPALILPCPDVSCFAQRSFLSTPLIPRLVPREGWRPGHGPSRRGREGRRGRGRIEPIPAGEGEPSVHL [ASIC4]” it was 1.34; in that of YVLRWNSLGEHLMSQPIQLPHNPAEGRVRGE [WDR62], 7.76; in that of REAGLPVLLPQGPLWLFTNKDPFVK [BCL7C], 6.88.

Turning to RAPPLTEAAPPTAPNKNVKTNPRT [NDUFA3], the median enrichment amounted to 0.588. As for GGGSRSDQLIAHMLCLDME [HNRNPAB], the figure is 3.08; as for WDREDPA [BTNL3], 0.401. In the case of SFTHHMDSIYKSQ [EDNRB] it was 1.08; in that of YYYYYY [Tyr06], 2.81; in that of “WPSPPCQGQDPDFSKCGSHSAGTCRDMRGGCCHGRLPLHTRHWGSDPPGRWPFSPSS [CYSRT1]”, 2.04. As for LNRKKSPK [MDN1], the figure is 0.34; as for WRPNSRTPK [SNRNP35], 0.861. Regarding YRTM [IAPP], the median enrichment amounted to 0.785. As for WNQS [CFHR1], the figure is 0.596; as for YCPGVCCLAHMSLL [CLSTN2], 19.2; as for “SWPPPFPPPAPSPSPTRQLIPGLLSDPFSRGTSGQCPTTHTHHHLTGSSLISDNPHPHCFWGSLSHLSHPVSCLCLSWCLSGL [CCDC97]”, 5.65. As for “CDPPRPPEWPPPHHSTMGLDARVIVVQNRRENRPATHKGQG [TMEM151A]”, the figure is 4.51; as for YSTVI [C5orf15], 0.763; as for “LVAPPHWTHGLAHASPLLPLPAIDNVAGTSASPLQPSNFPGTLLSAPEEGAVVSCCLWAPASSAVLGSVLLASVNNKATVCSG [MCM5]”, 4.44. In the case of “LVWGPCQPAAPKPAPLPKQPRPLPLNPGPGRPGRPPVTAAAPALCRAALTCLPSQPLTSRLSLGQREPFGGAACLLWFWEG [FLNA]” it was 3.92; in that of QKGRAQQCK [IRX2], 1.1; in that of SLCFV [E2F3], 2.42. With “RQEGPSGRDGPGGGQMGRCGRHVIDSTEGLSCVPPTLPWTDSEGPPGTSAKAG [KCNF1]”, the median enrichment was determined as 5.07. As for LMDHG [GLUD2], the figure is 1.6. As for “YSQTNTPYVSVNPCYLSRVCYFPSHRPNPWSPRGSHTTAITQCRGHA [HIP1]”, the figure is 2.78; as for KGRGPAESPCCLLEPPADAVLGPT [MBD3], 1.08. In the case of “PGLTALRSARRARAETRVGCGELKEPIKSCSSTQNEPCSRHLPMLRDAWSVLGARPGAAACPTPPEEADPDRYLTTFFFFFFF [UQCC3]” it was 5.28. Regarding LRLIIYQEC [PKIB], the median enrichment was found to be 6.92. In the case of YPYGE [PRKCH] it was 0.563; in that of WSTPAWYRHTQGLPCLHSPA [PDZD3], 5.04. As for “LDFMHSSERVTVTTVLSPISHKLLFVSKRMLLLLHCFPFAGTCWCLLLNWPALLAVWHCSLGRLLCSLYLHYRLVNLPTSSL [DCUN1D4]”, the figure is 4.52. For YDGHISFIGE [CFLAR], the median enrichment came to 0.753. In the case of KTCIHFLQTI [BACH1] it was 2.97. As for WWWWWWWWW [Trp09], the figure is 3.84; as for WPSSLPPKPTTQC [KPNA7], 0.282; as for “SGGVGPGRAGVCWHRQPPLWALGGPLKGSPTRGPDESFLSGVGSQRGSPPAAWGRAWPGRVIQRVCQPLTGSPSVAATRSTEL [FAM53B]”, 5.41. In the case of QSQEPSSLI [CNDP1] it was 0.195; in that of SSSSSS [Ser06], 0.35.

For KFGAQTSP [SPRR3], the median enrichment came to 0.603. As for LCLI [UBP1], the figure is 3.44; as for YEHLVKTRPSGPTMSAPSRGRDMACHSS [ITGB2], 0.9. As for YPV [HNRNPUL1], the figure is 0.542. With LATWRNCLCTGCGPTLSS [MED12], the median enrichment turned out to be 15.1. In the case of CGIQRERGSGRGGPEWGRLEGYRPAWMT [SNCG] it was 3.44; in that of “YRLFVHYCFHFVPRVKQTTEKSNQVITYPSAGDFDY [ZBBX]”, 10.1; in that of KRASTSEWPHLCPRC [NUMA1], 0.399. As for SAGAFVAISL [MSI2], the figure is 3.7; as for SRR [TMEM52], 0.803; as for “EKTVCKRSGVQEITSFDRSMYRKFKFCLRLHKLGAFLRCFSCSNLFVS [SRSF3]”, 10. Regarding RAMPSLCAVKLSMHYILLAPLQVNAKSQLG [CDC14A], the median enrichment is 7.49. For RGKTWKRPACLQ [RRM1], the median enrichment was 0.421. In the case of CFSVNLSLLVERSGACPSSQTSDL [LRRC46] it was 5.72.
